According to article PMC9482650, “Quantitative fragmentomics allow affinity mapping of interactomes” (Nature Communications, 2022):

T1: PDZD2_1, O15018
T1 sequence (O15018 80-192, limits assumed, looked up): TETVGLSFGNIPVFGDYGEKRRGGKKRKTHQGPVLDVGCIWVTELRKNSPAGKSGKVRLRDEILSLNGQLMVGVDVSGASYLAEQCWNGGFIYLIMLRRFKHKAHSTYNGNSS

T2: LNX2_4, Q8N448
T2 sequence (Q8N448 595-690, limits assumed, looked up): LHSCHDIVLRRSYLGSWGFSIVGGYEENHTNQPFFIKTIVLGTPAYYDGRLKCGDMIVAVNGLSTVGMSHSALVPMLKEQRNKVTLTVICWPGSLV

T3: MPDZ_13, O75970
T3 sequence (O75970 1982-2070, limits assumed, looked up): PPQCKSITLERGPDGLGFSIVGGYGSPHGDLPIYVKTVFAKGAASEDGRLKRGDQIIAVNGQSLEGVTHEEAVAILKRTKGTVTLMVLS

T4: TJP3_2, O95049
T4 sequence (O95049 190-282, limits assumed, looked up): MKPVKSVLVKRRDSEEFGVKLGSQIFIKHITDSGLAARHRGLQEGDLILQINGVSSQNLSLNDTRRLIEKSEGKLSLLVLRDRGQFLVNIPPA

T5: PTPN13_4, Q12923
T5 sequence (Q12923 1783-1878, limits assumed, looked up): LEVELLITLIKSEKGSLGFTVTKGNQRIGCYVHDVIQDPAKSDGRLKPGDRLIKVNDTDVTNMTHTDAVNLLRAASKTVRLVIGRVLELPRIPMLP

T6: USH1C_3, Q9Y6N9
T6 sequence (Q9Y6N9 447-547, limits assumed, looked up): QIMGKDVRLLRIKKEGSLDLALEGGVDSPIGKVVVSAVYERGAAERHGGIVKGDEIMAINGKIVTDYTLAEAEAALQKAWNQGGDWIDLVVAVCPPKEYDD

T7: NHERF1_2, O14745
T7 sequence (O14745 149-244, limits assumed, looked up): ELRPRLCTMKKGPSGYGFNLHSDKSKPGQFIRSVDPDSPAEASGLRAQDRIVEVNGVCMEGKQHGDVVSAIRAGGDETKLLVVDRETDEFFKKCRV

T8: PDZD2_6, O15018
T8 sequence (O15018 2745-2839, limits assumed, looked up): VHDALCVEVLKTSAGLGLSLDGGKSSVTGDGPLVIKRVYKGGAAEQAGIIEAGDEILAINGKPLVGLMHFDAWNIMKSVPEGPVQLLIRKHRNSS

T9: SHROOM3, Q8TF72
T9 sequence (Q8TF72 20-120, limits assumed, looked up): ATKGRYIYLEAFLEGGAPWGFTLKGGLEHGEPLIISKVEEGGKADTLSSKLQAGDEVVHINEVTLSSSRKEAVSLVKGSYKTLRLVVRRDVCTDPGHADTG

T10: PARD6B, Q9BYG5
T10 sequence (Q9BYG5 152-260, limits assumed, looked up): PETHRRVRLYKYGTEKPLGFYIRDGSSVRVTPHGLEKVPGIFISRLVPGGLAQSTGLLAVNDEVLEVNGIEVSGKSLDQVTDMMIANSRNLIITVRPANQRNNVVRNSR

T11: PDZD7_2, Q9H5P4
T11 sequence (Q9H5P4 205-303, limits assumed, looked up): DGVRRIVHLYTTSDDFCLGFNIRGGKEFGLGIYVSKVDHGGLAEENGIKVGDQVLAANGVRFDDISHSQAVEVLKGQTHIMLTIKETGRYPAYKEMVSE

T12: RGS12, O14924
T12 sequence (O14924 17-108, limits assumed, looked up): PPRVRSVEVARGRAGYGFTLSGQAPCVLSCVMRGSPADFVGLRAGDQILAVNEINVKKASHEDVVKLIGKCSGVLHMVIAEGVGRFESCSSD


Tests used:
Experiment in all cases: holdup assay
Design in all cases: key: below the threshold = too weak to quantify, mostly under pKd 3.1 to 4
[1] = target: PREX1_1, Q8TCU6
[2] = target: T1, PDZD2_1, O15018
[3] = target: MAGI1_6, Q96QZ7
[4] = target: SCRIB_4, Q14160
[5] = target: PARD3_1, Q8TEW0
[6] = target: T2, LNX2_4, Q8N448
[7] = target: MAGI1_3, Q96QZ7
[8] = target: T3, MPDZ_13, O75970
[9] = target: T4, TJP3_2, O95049
[10] = target: T5, PTPN13_4, Q12923
[11] = target: MAGIX, Q9H6Y5
[12] = target: T6, USH1C_3, Q9Y6N9
[13] = target: T7, NHERF1_2, O14745
[14] = target: MAGI3_3, Q5TCQ9
[15] = target: T8, PDZD2_6, O15018
[16] = target: MAGI3_5, Q5TCQ9
[17] = target: LIMK1, P53667
[18] = target: T9, SHROOM3, Q8TF72
[19] = target: DLG2_1, Q15700
[20] = target: RIMS1, Q86UR5
[21] = target: T10, PARD6B, Q9BYG5; details: plain residues with an end cap or a label only (N-terminal biotin on a linker: (peg)3)
[22] = target: PDZD9, Q8IXQ8; details: plain residues with an end cap or a label only (N-terminal biotin on a linker: (peg)3)
[23] = target: T11, PDZD7_2, Q9H5P4; details: plain residues with an end cap or a label only (N-terminal biotin on a linker: (peg)3)
[24] = target: T12, RGS12, O14924; details: plain residues with an end cap or a label only (N-terminal biotin on a linker: (peg)3)
[25] = modified: phospho on T at position -2 from the C-terminal residue
[26] = plain residues with an end cap or a label only (N-terminal biotin on a linker: (peg)3)

Sequence of RIMS1, Q86UR5 (Q86UR5 584-692): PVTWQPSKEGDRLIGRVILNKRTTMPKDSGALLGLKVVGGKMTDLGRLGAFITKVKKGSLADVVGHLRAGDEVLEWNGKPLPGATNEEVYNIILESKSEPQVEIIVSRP
Sequence of MAGI1_6, Q96QZ7 (Q96QZ7 1146-1238): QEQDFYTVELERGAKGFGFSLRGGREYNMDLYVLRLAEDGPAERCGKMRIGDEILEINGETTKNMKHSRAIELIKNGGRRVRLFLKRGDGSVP
Sequence of LIMK1, P53667 (P53667 155-268): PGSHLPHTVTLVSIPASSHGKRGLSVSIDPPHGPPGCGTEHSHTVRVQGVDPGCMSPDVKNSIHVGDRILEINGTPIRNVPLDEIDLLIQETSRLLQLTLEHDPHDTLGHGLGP
Sequence of PARD3_1, Q8TEW0 (Q8TEW0 264-372): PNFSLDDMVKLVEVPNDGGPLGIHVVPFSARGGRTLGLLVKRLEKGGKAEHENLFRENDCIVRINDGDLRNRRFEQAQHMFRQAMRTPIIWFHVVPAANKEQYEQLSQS
Sequence of SCRIB_4, Q14160 (Q14160 1095-1204): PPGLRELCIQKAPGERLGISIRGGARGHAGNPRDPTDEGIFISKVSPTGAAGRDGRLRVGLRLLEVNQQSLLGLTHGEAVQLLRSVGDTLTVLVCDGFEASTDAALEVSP
Sequence of MAGIX, Q9H6Y5 (Q9H6Y5 118-211): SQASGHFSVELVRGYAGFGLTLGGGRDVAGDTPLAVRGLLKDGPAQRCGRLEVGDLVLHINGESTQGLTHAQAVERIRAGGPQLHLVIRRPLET
Sequence of MAGI3_3, Q5TCQ9 (Q5TCQ9 572-655): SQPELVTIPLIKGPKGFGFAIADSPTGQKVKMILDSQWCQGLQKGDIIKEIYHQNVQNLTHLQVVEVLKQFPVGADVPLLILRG
Sequence of PDZD9, Q8IXQ8 (Q8IXQ8 23-120): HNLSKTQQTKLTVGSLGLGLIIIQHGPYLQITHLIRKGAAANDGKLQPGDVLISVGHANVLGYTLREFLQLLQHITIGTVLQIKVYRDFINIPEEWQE
Sequence of MAGI1_3, Q96QZ7 (Q96QZ7 638-725): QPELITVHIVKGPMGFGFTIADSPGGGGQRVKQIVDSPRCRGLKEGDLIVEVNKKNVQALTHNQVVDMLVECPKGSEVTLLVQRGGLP
Sequence of PREX1_1, Q8TCU6 (Q8TCU6 608-718): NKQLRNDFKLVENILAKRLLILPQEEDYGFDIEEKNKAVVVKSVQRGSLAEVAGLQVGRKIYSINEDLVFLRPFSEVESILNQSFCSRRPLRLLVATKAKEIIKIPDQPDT
Sequence of MAGI3_5, Q5TCQ9 (Q5TCQ9 847-941): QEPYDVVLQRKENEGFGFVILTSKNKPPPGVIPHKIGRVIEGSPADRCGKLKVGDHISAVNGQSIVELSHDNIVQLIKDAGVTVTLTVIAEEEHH

Binder	pKd [1, 26]	pKd [2, 26]	pKd [3, 26]	pKd [4, 26]	pKd [5, 26]	pKd [6, 26]	pKd [7, 26]	pKd [21]	pKd [8, 26]	pKd [9, 26]	pKd [22]	pKd [10, 26]	pKd [11, 26]	pKd [12, 26]	pKd [13, 26]	pKd [23]	pKd [24]	pKd [14, 26]	pKd [15, 26]	pKd [16, 26]	further results
SSRTRRETQL [HPV16-E6_-2P, P03126]	–	–	–	–	–	–	–	–	–	–	–	–	–	–	–	–	–	–	–	–	pKd [1, 25]: below the threshold; pKd [2, 25]: below the threshold; pKd [3, 25]: below the threshold; pKd [4, 25]: below the threshold; pKd [5, 25]: below the threshold; pKd [6, 25]: below the threshold; pKd [7, 25]: below the threshold; pKd [8, 25]: below the threshold; pKd [9, 25]: below the threshold; pKd [10, 25]: below the threshold; pKd [11, 25]: below the threshold; pKd [12, 25]: below the threshold; pKd [13, 25]: below the threshold; pKd [14, 25]: below the threshold; pKd [15, 25]: below the threshold; pKd [16, 25]: below the threshold; pKd [17, 25]: below the threshold; pKd [18, 25]: below the threshold; pKd [19, 25]: below the threshold; pKd [20, 25]: below the threshold
RYEDTTLVEDTVL [WNV-NS5, Q9Q6P4]	below the threshold	below the threshold	below the threshold	below the threshold	below the threshold	below the threshold	below the threshold	below the threshold	below the threshold	4.25	below the threshold	below the threshold	below the threshold	below the threshold	below the threshold	below the threshold	below the threshold	below the threshold	below the threshold	below the threshold	pKd [17, 26]: below the threshold; pKd [18, 26]: below the threshold; pKd [19, 26]: 4.28; pKd [20, 26]: below the threshold
QQSMSSADSTQA [SARS-Cov2-N, P0DTC9]	below the threshold	below the threshold	below the threshold	below the threshold	below the threshold	below the threshold	below the threshold	below the threshold	below the threshold	below the threshold	below the threshold	below the threshold	below the threshold	below the threshold	below the threshold	below the threshold	below the threshold	3.78	below the threshold	below the threshold	pKd [17, 26]: below the threshold; pKd [18, 26]: below the threshold; pKd [19, 26]: below the threshold; pKd [20, 26]: below the threshold
RRRRSQSRESQC [HBV-HBc, P03193]	below the threshold	below the threshold	below the threshold	below the threshold	below the threshold	3.9	below the threshold	below the threshold	below the threshold	below the threshold	below the threshold	below the threshold	below the threshold	below the threshold	3.96	below the threshold	below the threshold	below the threshold	below the threshold	below the threshold	pKd [17, 26]: below the threshold; pKd [18, 26]: below the threshold; pKd [19, 26]: 4.51; pKd [20, 26]: below the threshold
